From the supplement of paper PMC12042874
± gives the uncertainty stated by the source.

Experiment: amyloid nucleation score (Sup35N fusion, yeast selection) (log enrichment); library NNK2; higher = more nucleation; inactive = no reads after selection
Method in brief: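 The nucleation score, computed with DiMSum, is the log enrichment of output over input reads, centred on the mode score of non-aggregating sequences. Sequences with under 100 input reads were dropped. Reads were generated by Illumina sequencing of plasmid inserts from psi-negative yeast with Sup35N fused to peptides of 20 random codons, induced with 100 μM copper sulfate for 24 hours and grown 7 days at 30°C on medium lacking adenine and uracil.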

Substance	amyloid nucleation score
TFHFQTRLCYLALYDHAIYA	-0.242 ± 0.79
TFIFWGTAELVNNNLGLRC	-0.479 ± 0.48
TFKILLRCGNNLFGSKAFDM	3.63 ± 0.05
TFKSNLV	0.092 ± 0.17
TFLSGLCIAACSIMGFNQSS	-1.6 ± 0.78
TFLVLLRVMVWVV	0.648 ± 0.6
TFNACNK	0.349 ± 0.18
TGFGLMHGLAGKCCLRFFIT	-0.116 ± 0.35
TGGRF	0.264 ± 0.8
TGKYICRW	-0.843 ± 0.38
TGLCHPIGLPDRFRYIIRSL	-0.789 ± 0.55
TGLVFVLMCKSCQWFFREML	-0.948 ± 0.42
TGLVVDCLAYRDCSVKQDRA	0.582 ± 0.34
TGSVREYCGEVPWRLCDDRV	0.244 ± 0.62
TGTAVG	3.23 ± 0.073
TGVLCGSYFFWLF	5.15 ± 0.058
TGVYRWSEMSMVMFFFHVEC	-0.226 ± 0.63
TGWCGL	5.54 ± 0.066
TGWNDATRY	-0.467 ± 0.49
TGWTFWGGCRWM	4.57 ± 0.12
THCKGIYLSCMTSDFVHSYY	inactive
THLHCCYRETISDP	0.175 ± 0.33

Substance	amyloid nucleation score
TIATPHCVYDSCGCSVVSSV	0.176 ± 0.56
TIFFRCHWIRGLLVHLMF	inactive
TIGGEASVPRRMPLYTLQCE	6.03 ± 0.088
TIGPKFLLIIKMRCLWMNEE	0.105 ± 1.1
TIGRSFYELPFYGAILFWMR	1.45 ± 0.21
TIIRRDSLESQRRHCPMVVV	0.351 ± 0.64
TISMEVEYCV	-0.1 ± 1
TIYVRQ	-1.4 ± 1.1
TKEHYYR	0.048 ± 0.5
TKFVWDQNLVSSLINCGQSL	-0.841 ± 1.1
TKGFVTGVGGRSLIIVGCGA	0.664 ± 0.51
TKICWGSCRHLDLAFFLFLY	inactive
TKRMLERVTFFVHWCWLWSV	1.09 ± 0.15
TLDGLDS	-0.283 ± 0.25
TLDVIGIYLAGVGRFDGKSA	0.261 ± 0.49
TLFCIVMYCTKVETNFLVLH	6.45 ± 0.085
TLFNMMIYSL	1.09 ± 0.54
TLFSSRRYSVGERSQVTCLI	-0.492 ± 0.55
TLGNKFLKSWYMGASKTMCV	-1.78 ± 0.75
TLIGNDDLVVTCTYSYDPTL	-0.145 ± 1.1
TLKACKNFYGGIFCNHGSES	-0.72 ± 1.1
TLNNCRPFCLLELANLINRD	3.4 ± 0.058

Substance	amyloid nucleation score
TLNSRWVNNSPVEM	-0.12 ± 1
TLPCFRVFYVTFQYSNHLLS	8.55 ± 0.042
TLPSPIRYRVNTNNRM	0.397 ± 0.54
TLSKYCEDKFEWFCIAVICR	6.95 ± 0.04
TLTLSTIHWNLY	6.13 ± 0.066
TLTYFLNSSWD	1.93 ± 0.25
TMGKCITIGPAFIHNT	1.51 ± 0.32
TMGYDSSTVTVFGGSMFLRL	2.56 ± 0.2
TMILVCRRAFKCYLTQDWSD	0.538 ± 0.3
TMIYMHRLLLNVVDVCCHWF	0.261 ± 0.74
TMKHPDMS	-0.152 ± 0.55
TMKLLQRYYLSFFPI	-1.72 ± 0.64
TMLYKWKVGNTFSHVLCLLL	-0.14 ± 1
TMPTY	0.709 ± 0.66
TMVALKI	-0.15 ± 0.44
TMYRYASFKADLSDFKAAYE	0.524 ± 0.81
TMYYVTGGV	2.44 ± 0.056
TNDYSFWVLSHTANQPSLME	inactive
TNFFLNKRAGYNWLLVFEVI	-0.886 ± 0.48
TNLQSVRYVAHTF	3.96 ± 0.068
TNVGCRVLCTLRSVTPDVVR	0.646 ± 0.62
TNWQGQRIRYAKDLGGPCGL	0.506 ± 0.35

Substance	amyloid nucleation score
TPDLSLLFIIRRCIFSGTPY	inactive
TPHGIYEHLPQEY	-0.273 ± 0.49
TPILFVT	-0.746 ± 0.56
TPPTHWSFFMIWARCEKLGG	-1.01 ± 0.64
TQLLQHGGGFRSRISSRLGR	1.21 ± 0.41
TQRHATENLKFTTWAYKSRE	0.994 ± 0.16
TQSNALPVGPYSFTFFGRGY	0.54 ± 0.8
TRFGPPVHSKLCPPAMWPGW	0.691 ± 0.23
TRISMRLWFSGRELIEALKF	-0.29 ± 0.65
TRLMCMFERYQACFTDLSDI	-0.698 ± 0.54
TRMDNAY	-0.132 ± 0.65
TRNYLFTTSNWYVSSKMSNS	-0.632 ± 0.56
TRWARYALNVIEHWQLSWVK	0.145 ± 0.63
TRWSANYPRCWPTMRRCLSL	0.858 ± 0.51
TSCFLLIQGIFGGLGITGMP	2.97 ± 0.099
TSFLNLIFIYLALKRWLILF	4.74 ± 0.06
TSFQVFINYVSL	7.605 ± 0.046
TSHSFVLVY	-0.705 ± 0.33
TSIIVTMLDPYWVISNSCAH	5.701 ± 0.038
TSIYLVLGYIFESATRLF	0.144 ± 0.79
